Target: herpes virus entry mediator (HVEM) (human (endogenous in monocyte‐derived macrophages)) (UniProt Q92956)
Sequence of UniProt Q92956 (Q92956 39-283): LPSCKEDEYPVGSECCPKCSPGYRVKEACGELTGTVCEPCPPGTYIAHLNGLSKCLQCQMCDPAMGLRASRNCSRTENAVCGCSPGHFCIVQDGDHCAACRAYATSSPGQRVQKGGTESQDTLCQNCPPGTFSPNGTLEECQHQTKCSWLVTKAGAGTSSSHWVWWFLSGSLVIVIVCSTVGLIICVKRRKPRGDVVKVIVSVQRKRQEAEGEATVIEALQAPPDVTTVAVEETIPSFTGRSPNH

Row | Substance | decrease of staurosporin-induced caspase-3 activity in primary macrophages exposed before to HSV-1 gD, against staurosporin alone [%] | decrease of staurosporin-induced caspase-3 activity in primary macrophages exposed before to CyPB, against staurosporin alone [%]
1 | recombinant His‐tagged HSV‐1 gD (glycoprotein D of herpes simplex virus‐1) (from UniProt Q69091 26-394) (natural protein) | 75 | 
2 | recombinant human cyclophilin B (from UniProt P23284 34-216) (natural protein) |  | 75

Source: publication PMC5292672
